The term pKa denotes the negative logarithm of the acid dissociation constant.

Data set [1] concerns the target Glu49. Nature of the data set: NMR. Conditions: 300 K, not stated (50 mM phosphate buffers), 50 mM phosphate buffers at different pH, micelle-bound.
In data set [2] the target is Glu59. Nature of the data set: NMR. The following applies: 300 K, not stated (50 mM phosphate buffers), 50 mM phosphate buffers at different pH, micelle-bound.
The mark [3] stands for this setting: L2 peptide free (no L1 or M peptide).
Setting [4] is: L2 peptide in the presence of the GldL TMH1 (L1) and GldM TMH (M) peptides at 1:1:1 molar ratio.

B1: GldL TMH2 peptide (L2), transmembrane helix 2 of gliding motility / T9SS motor protein GldL (Flavobacterium johnsoniae) (peptide)
chain: KKVMLSIGLLTEALIFALSAFEPVKK
Turning to B1, the pKa in data set [1] (setting [3]) is 5.54 ± 0.04; in data set [1] (setting [4]), 5.83 ± 0.02; in data set [2] (setting [3]) it was 5.65 ± 0.13; in data set [2] (setting [4]), 5.83 ± 0.02.

The record behind these values is publication PMC8986121.
